Measurements taken from patent US20240092889A1 (Chugai, published 2024).
Substitutions are numbered along the chain they refer to. In names and notes the source's numbering stands.

B1: IPN009VH2VK3-SG1148 (antibody, human IgG1, kappa, V domains shown)
VH: EVMLVESGGGLVKPGGSLRLSCAASGFTFSNYAMSWVRQAPGKGLEWVATISSGGSHTYYLDSVKGRFTISRDNSKDTLYLQMNSLRAEDTALYYCARLFTGYAMDYWGQGTLVTVSS
VL: QIVLTQSPATLSLSPGERATLSCTASSSVSSSYLHWYQQKPGKAPKLWIYSTSNLASGVPSRFSGSGSGTDYTLTISSLQPEDFATYYCHQYYRLPPITFGQGTKLEIKR
notes: also called anti-human C1r2s2 antibody
B2: AL0737 (antibody, human IgG1, kappa, V domains shown)
VH: QVQLVESGGGVVQPGRSLRLSCAASGFTFSAYAMNWIRQPPGKGLEWIGLIYGSGSTFYASWAKGRVTISVDTSKNQFSLKLSSVTAADTAVYYCARGRSVNYNSDFHLWGQGTLVTVSS
VL: DIQMTQSPSSLSASVGDRVTITCQASQSLHDKKNLAWYQQKPGQPPKLLIYGASTLESGVPSRFSGSGSGTDFTLTISSLQPEDFATYYCQGEFSWSSADLNTFGQGTKVEIKR
notes: COS0637temp with VL C94W/C95dL (Kabat), already in the VL entry
B3: COS0637pHv3-TT91R (antibody, V domains shown)
VH: B2 VH with S56H, T57E, K64E, G65E, V101K, N104V, D106G
VL: B2 VL with S28I, G52Q, T55Q, Q91H, W96Y, S97E, T103Q
B4: AL0744 (antibody, human IgG1, kappa, V domains shown)
VH: B2 VH
VL: B2 VL with L101M
notes: COS0637temp with VL C94W/C95dM (Kabat), already in the VL entry
B5: COS0637pHv5-TT91R (antibody, V domains shown)
VH: B2 VH with T28S, S56H, T57E, K64E, G65E, V101K, N104V, D106G
VL: B2 VL with Q27G, S28I, T55Q, Q91H, W96Y, S97E, S98E
B6: AL0743 (antibody, human IgG1, kappa, V domains shown)
VH: B2 VH
VL: B2 VL with W96Y
notes: COS0637temp with VL C94Y/C95dL (Kabat), already in the VL entry; template for further optimization
B7: recombinant human C1r2s2 tetramer (other)
chain 1: EPTMYGEILSPNYPQAYPSEVEKSWDIEVPEGYGIHLYFTHLDIELSENCAYDSVQIISGDTEEGRLCGQRSSNNPHSPIVEEFQVPYNKLQVIFKSDFSNEERFTGFAAYYVATDINECTDFVDVPCSHFCNNFIGGYFCSCPPEYFLHDDMKNCGVNCSGDVFTALIGEIASPNYPKPYPENSRCEYQIRLEKGFQVVVTLRREDFDVEAADSAGNCLDSLVFVAGDRQFGPYCGHGFPGPLNIETKSNALDIIFQTDLTGQKKGWKLRYHGDPMPCPKEDTPNSVWEPAKAKYVFRDVVQITCLDGFEVVEGRVGATSFYSTCQSNGKWSNSKLKCQPVDCGIPESIENGKVEDPESTLFGSVIRYTCEEPYYYMENGGGGEYHCAGNGSWVNEVLGPELPKCVPVCGVPREPFEEKQRIIGGSDADIKNFPWQVFFDNPWAGGALINEYWVLTAAHVVEGNREPTMYVGSTSVQTSRLAKSKMLTPEHVFIHPGWKLLEVPEGRTNFDNDIALVRLKDPVKMGPTVSPICLPGTSSDYNLMDGDLGLISGWGRTEKRDRAVRLKAARLPVAPLRKCKEVKVEKPTADAEAYVFTPNMICAGGEKGMDSCKGDSGGAFAVQDPNDKTKFYAAGLVSWGPQCGTYGLYTRVKNYVDWIMKTMQENSTPRED
chain 2: SIPIPQKLFGEVTSPLFPKPYPNNFETTTVITVPTGYRVKLVFQQFDLEPSEGCFYDYVKISADKKSLGRFCGQLGSPLGNPPGKKEFMSQGNKMLLTFHTDFSNEENGTIMFYKGFLAYYQAVDLDECASRSKLGEEDPQPQCQHLCHNYVGGYFCSCRPGYELQEDRHSCQAECSSELYTEASGYISSLEYPRSYPPDLRCNYSIRVERGLTLHLKFLEPFDIDDHQQVHCPYDQLQIYANGKNIGEFCGKQRPPDLDTSSNAVDLLFFTDESGDSRGWKLRYTTEIIKCPQPKTLDEFTIIQNLQPQYQFRDYFIATCKQGYQLIEGNQVLHSFTAVCQDDGTWHRAMPRCKIKDCGQPRNLPNGDFRYTTTMGVNTYKARIQYYCHEPYYKMQTRAGSRESEQGVYTCTAQGIWKNEQKGEKIPRCLPVCGKPVNPVEQRQQIIGGQKAKMGNFPWQVFTNIHGRGGGALLGDRWILTAAHTLYPKEHEAQSNASLDVFLGHTNVEELMKLGNHPIRRVSVHPDYRQDESYNFEGDIALLELENSVTLGPNLLPICLPDNDTFYDLGLMGYVSGFGVMEEKIAHDLRFVRLPVANPQACENWLRGKNRMDVFSQNMFCAGHPSLKQDACQGDAGGVFAVRDPNTDRWVATGIVSWGIGCSRGYGFYTKVLNYVDWIKKEMEEED
notes: C1s and C1r co-expressed in HEK293/FreeStyle 293-F and purified from conditioned medium

Tests used:
[1] = molecular target: B7; test: SPR (BIACORE T200), IPN009VH2Vk3-SG1148 immobilised on the chip, human C1r2s2 injected for capture, pH 7.4, 37 C
Excerpt: (§1) Recombinant human C1r2s2 tetramer was first captured onto the sensor surface by the anti-C1r2s2 antibody. The capture levels were aimed at 200 resonance unit (RU). […] The sensor surface was regenerated each cycle with 3 M MgCl2. Sensorgrams were obtained using BIACORE® T200 Evaluation software, version 2.0 (GE Healthcare). […] For comparison of these sensorgrams, binging response of C1r2s2 was normalized as 100 RU. […] For comparison of these sensorgrams, baseline (before injecting antibodies) was adjusted to 0 RU.

[2] = molecular target: B7; test: SPR (BIACORE), antibody captured by ProL, human C1r2s2 injected at 100 nM, pH 7.4, 37 C; y axis Response/Capture
Description: Analysis of interaction between antibody variants and the human C1r2s2 prepared as mentioned above was carried out at pH7.4, at 37 degrees C. using BIACORE® T200 instrument (GE Healthcare) or BIACORE® 4000 (GE Healthcare). ProL (BioVision) was immobilized onto a CM4 sensorchip using amine coupling kit (GE Healthcare) according to the recommended settings by GE Healthcare. Antibodies and analytes were diluted into the respective running buffers, ACES pH7.4 (20 mM ACES (N-(2-Acetamido)-2-aminoethanesulfonic acid), 150 mM NaCl, 1.2 mM CaCl2, 1 mg/ml bovine serum albumin (BSA), 1 mg/ml CMD (CM-Dextran sodium salt), 0.05% Tween® 20 (polysorbate 20), 0.005 w/v % NaN3). Each antibody was captured onto the sensor surface by ProL. Antibody capture levels were aimed at 200 resonance units (RU). Then, recombinant human C1r2s2 was injected at concentrations of 25 and 100 nM followed by dissociation at pH7.4. The surface was regenerated using 10 mM Glycine-HCl, pH1.5.

[3] = molecular target: B7; test: SPR (BIACORE T200), 37 C, ratio of KD at pH 5.8 to KD at pH 7.4
Description: (§2) KD (dissociation constant) value of each samples at pH 7.4 and pH 5.8 are determined at 37 degrees C. using BIACORE® T200 instrument (GE Healthcare). Purified Mouse Anti-Human Ig kappa Light Chain (GE Healthcare) can be immobilized onto all flow cells of a CMS sensor chip using an amine coupling kit (GE Healthcare). 20 mM ACES, 150 mM NaCl, 1.2 mM CaCl2, 1 mg/mL BSA (IgG-free), 1 mg/mL CMD, 0.05% Tween® 20, 0.005% NaN3, pH 7.4 or pH 5.8 buffer were used as running buffer. Each antibody can be captured onto the sensor surface by Anti-Human Ig kappa Light chain. Antibody capture levels are aimed at 50 resonance unit (RU). […] Sensor surface is regenerated each cycle with, e.g., Glycine pH 2.0 (GE Healthcare). KD values were obtained using BIACORE® T200 Evaluation software, version 2.0 (GE Healthcare).

[4] = molecular target: B7; test: SPR (BIACORE T200), 37 C, Ab captured via anti-human Ig kappa, human C1r2s2 as analyte, pH 5.8; pH 5.8 (acidic buffer), 37 C; antibody engineered for pH-dependent binding
Description: as §2

[5] = molecular target: B7; test: SPR (BIACORE T200), 37 C, Ab captured via anti-human Ig kappa, human C1r2s2 as analyte, pH 7.4; pH 7.4, 37 C
Description: as §2

[6] = molecular target: B7; test: SPR (BIACORE T200), 37 C, Ab captured via anti-human Ig kappa, human C1r2s2 as analyte, pH 7.4; pH 7.4, 37 C; kinetic KD, C1r2s2 up to 100-400 nM
Description: as §2

[7] = molecular target: T1, native human C1q (CompTech) (human, UniProt P02745 23-245; P02746 28-253; P02747 29-245); test: SPR (BIACORE T200), human C1r2s2 captured by immobilised IPN009VH2Vk3-SG1148, native human C1q injected at about 100 nM, pH 7.4, 37 C
T1 construct: the subunit make-up A/B/C is from general knowledge
Excerpt: as §1

T1 sequence (P02745 23-245 limits assumed, chain 1 of 3): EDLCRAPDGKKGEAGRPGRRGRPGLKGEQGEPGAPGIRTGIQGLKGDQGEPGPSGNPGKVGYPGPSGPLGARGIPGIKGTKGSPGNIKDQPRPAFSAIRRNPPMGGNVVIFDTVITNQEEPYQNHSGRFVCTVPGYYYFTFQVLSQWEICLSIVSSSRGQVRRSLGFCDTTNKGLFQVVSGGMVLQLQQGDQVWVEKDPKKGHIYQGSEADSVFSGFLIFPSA
T1 sequence (P02746 28-253 limits assumed, chain 2 of 3): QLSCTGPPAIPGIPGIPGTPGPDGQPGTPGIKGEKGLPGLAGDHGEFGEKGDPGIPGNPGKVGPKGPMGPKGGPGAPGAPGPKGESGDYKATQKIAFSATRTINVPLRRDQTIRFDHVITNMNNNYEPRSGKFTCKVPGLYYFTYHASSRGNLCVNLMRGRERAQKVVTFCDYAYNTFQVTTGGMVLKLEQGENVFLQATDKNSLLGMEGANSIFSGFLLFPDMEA
T1 sequence (P02747 29-245 limits assumed, chain 3 of 3): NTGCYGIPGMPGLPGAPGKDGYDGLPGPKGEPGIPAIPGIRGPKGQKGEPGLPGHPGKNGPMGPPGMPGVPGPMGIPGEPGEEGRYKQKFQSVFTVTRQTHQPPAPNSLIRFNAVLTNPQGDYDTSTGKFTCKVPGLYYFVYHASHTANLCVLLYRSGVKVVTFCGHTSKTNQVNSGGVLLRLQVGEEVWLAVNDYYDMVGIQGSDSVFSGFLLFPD

Binder: B1
binding result [1]: binds

Binder: B2
binding result [2]: binds

Binder: B3
KD (pH 5.8)/KD (pH 7.4) [3]: 278
Kd [4]: 2130 nM
Kd [5]: 7.66 nM

Binder: B4
binding result [2]: binds

Binder: B5
Kd [6]: 6.43 nM

Binder: B6
binding result [2]: binds

Binder: B7
binding result [7]: binds
